In US20190338048A1 (published 2019):
Substitutions are numbered along the chain they refer to. Names may count otherwise. Where two headings read alike, the source gives them in different places.

Key:
[1] = target: Pertuzumab heavy chain Fab construct (H2) L45A (VH L45A); assay: LCCA, SPR tag read-out
[2] = target: Pertuzumab heavy chain Fab construct (H2) L45P (VH L45P); assay: LCCA, SPR tag read-out
[3] = target: CAT-2200 heavy chain Fab construct (H1), wild type; assay: LCCA, SPR tag read-out
[4] = target: CAT-2200 heavy chain Fab construct (H1) L45F (VH L45F); assay: LCCA, SPR tag read-out
Recombinant human IL-17A [5] = target: T1, Recombinant human IL-17A (human, UniProt Q16552 20-155, limits assumed); assay: SPR
T1 sequence (Q16552 20-155 limits assumed): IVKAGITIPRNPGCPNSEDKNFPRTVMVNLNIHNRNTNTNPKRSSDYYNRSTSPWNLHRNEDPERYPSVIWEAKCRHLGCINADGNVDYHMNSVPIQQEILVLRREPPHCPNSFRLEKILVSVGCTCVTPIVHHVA

Recombinant human IL-17A [6] = target: T1, Recombinant human IL-17A; assay: SPR; remark: listed apart in the source
Recombinant human IL-17A [7] = target: T2, Recombinant human IL-17A (human, UniProt Q16552 20-155, limits assumed); assay: SPR; remark: listed apart in the source
T2 sequence (Q16552 20-155 limits assumed): as above

Recombinant human IL-17A [8] = target: T2, Recombinant human IL-17A; assay: SPR; remark: listed apart in the source
[9] = target: Pertuzumab heavy chain Fab construct (H2) Q39R (VH Q39R); assay: LCCA, SPR tag read-out
[10] = target: CAT-2200 heavy chain Fab construct (H1) Q39D (VH Q39D); assay: LCCA, SPR tag read-out
[11] = target: CAT-2200 heavy chain Fab construct (H1) Q39E (VH Q39E); assay: LCCA, SPR tag read-out
[12] = target: Pertuzumab heavy chain Fab construct (H2) Q39K (VH Q39K); assay: LCCA, SPR tag read-out
[13] = target: CAT-2200 heavy chain Fab construct (H1) Q39E (VH Q39E); assay: LCCA, SPR tag read-out; remark: listed apart in the source
[14] = target: T3, His-tagged recombinant human CD-19 (human, UniProt P15391 20-291, limits assumed); assay: SPR
T3 sequence (looked up): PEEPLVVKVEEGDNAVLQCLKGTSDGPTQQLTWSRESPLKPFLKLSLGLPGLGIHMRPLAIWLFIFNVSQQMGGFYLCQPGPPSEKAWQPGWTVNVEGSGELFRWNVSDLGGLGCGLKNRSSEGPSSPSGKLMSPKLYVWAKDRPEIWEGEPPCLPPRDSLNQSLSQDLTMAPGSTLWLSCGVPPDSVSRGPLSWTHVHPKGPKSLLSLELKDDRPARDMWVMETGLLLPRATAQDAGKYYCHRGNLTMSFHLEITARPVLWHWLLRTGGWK

[15] = target: T3, His-tagged recombinant human CD-19; assay: SPR; remark: listed apart in the source
[16] = target: T4, His-tagged recombinant human CD-19 (human, UniProt P15391 20-291, limits assumed); assay: SPR; remark: listed apart in the source
T4 sequence (looked up): T3 sequence (looked up)

[17] = target: T4, His-tagged recombinant human CD-19; assay: SPR; remark: listed apart in the source
[18] = target: His-tagged Influenza B Hemagglutinin (B/Brisbane/60/2008) (Influenza B (B/Brisbane/60/2008))

B1: Pertuzumab kappa light chain construct (L2) P44F, HA-tagged (other, not shown: small tags and cut ends)
light: DIQMTQSPSSLSASVGDRVTITCKASQDVSIGVAWYQQKPGKAFKLLIYSASYRYTGVPSRFSGSGSGTDFTLTISSLQPEDFATYYCQQYYIYPYTFGQGTKVEIKRTVAAPSVFIFPPSDEQLKSGTASVVCLLNNFYPREAKVQWKVDNALQSGNSQESVTEQDSKDSTYSLSSTLTLSKADYEKHKVYACEVTHQGLSSPVTKSFNRGEC
H2L2:H2L1 normalized median ratio (H2L2 part) [1]: 59% | H2L2:H2L1 normalized median scalar value ln(r1/f1) [1]: 0.37 | H2L2:H2L1 normalized median ratio (H2L2 part) [2]: 67% | H2L2:H2L1 normalized median scalar value ln(r1/f1) [2]: 0.72 | H1L1:H1L2 normalized median ratio (H1L2 part) [3]: 38% | H1L1:H1L2 normalized median ratio (H1L2 part) [4]: 35%

B2: Design 3113 bispecific antibody, System A (CAT-2200 H1/L1 & Pertuzumab H2/L2) (bispecific antibody)
chain 1: not shown
chain 2: NFMLTQPHSVSESPGKTVTISCTRSSGSLANYYVQWYQQRPGSSPTIVIFANNQRPSGVPDRFSGSIDSSSNSASLTISGLKTEDEADYYCQTYDPYSVVFGGGTKLTVLGQPKAAPSVTLFPPSSEELQANKATLDCLISDFYPGAVTVAWKADSSPVKAGVETTTPSKQSNNKYAASSTLSLTPEQWKSHRSYSCQVTHEGSTVEKTVAPTECS
chain 3: not shown
chain 4: B1 light with F44P, S131R, V133G, S176R
Kd (Recombinant human IL-17A [5]): 0.39 nM | Difference in H1L1 log(KD) from wild type (Recombinant human IL-17A [6]): -0.14

B3: Design 2979 bispecific antibody, System A (CAT-2200 H1/L1 & Pertuzumab H2/L2) (bispecific antibody)
chain 1: not shown
chain 2: B2 chain 2 with D137V, S179E, T181E
chain 3: not shown
chain 4: B1 light with F44P, S131R, V133G, S176R
Kd (Recombinant human IL-17A [5]): 0.31 nM | Difference in H1L1 log(KD) from wild type (Recombinant human IL-17A [6]): -0.03

B4: Design 2994 bispecific antibody, System A (CAT-2200 H1/L1 & Pertuzumab H2/L2) (bispecific antibody)
chain 1: not shown
chain 2: B2 chain 2 with E128Q, T135K, D137V, T181Y
chain 3: not shown
chain 4: B1 light with F44P, Q124E, V133D
Kd (Recombinant human IL-17A [7]): 0.45 nM | Difference in H1L1 log(KD) from wild type (Recombinant human IL-17A [8]): -0.08 log(KD)

B5: Pertuzumab kappa light chain construct (L2) Q38E, HA-tagged (other, not shown: small tags and cut ends)
light: B1 light with Q38E, F44P
H2L2:H2L1 normalized median ratio (H2L2 part) [9]: 54% | H2L2:H2L1 normalized median scalar value ln(r1/f1) [9]: 0.15 | H1L1:H1L2 normalized median ratio (H1L2 part) [10]: 36% | H1L1:H1L2 normalized median ratio (H1L2 part) [11]: 31% | H2L2:H2L1 normalized median ratio (H2L2 part) [12]: 54% | H1L1:H1L2 normalized median ratio (H1L2 part) [13]: 24%

B6: Design 3931 bispecific antibody, System A (CAT-2200 H1/L1 & Pertuzumab H2/L2) (bispecific antibody)
chain 1: not shown
chain 2: B2 chain 2 with D137V, T181K
chain 3: not shown
chain 4: B1 light with F44P, V133G, S176D
Kd (Recombinant human IL-17A [7]): 0.44 nM | Difference in H1L1 log(KD) from wild type (Recombinant human IL-17A [8]): -0.07 log(KD)

B7: Design 3967 bispecific antibody, System A (CAT-2200 H1/L1 & Pertuzumab H2/L2) (bispecific antibody)
chain 1: not shown
chain 2: B2 chain 2 with S126D, K133T, D137V, S179E, T181E
chain 3: not shown
chain 4: B1 light with F44P, S121K, Q124R, T178R
Kd (Recombinant human IL-17A [7]): 0.37 nM | Difference in H1L1 log(KD) from wild type (Recombinant human IL-17A [8]): -0.11 log(KD)

B8: Pertuzumab kappa light chain construct (L2) Q38D, HA-tagged (other, not shown: small tags and cut ends)
light: B1 light with Q38D, F44P
H2L2:H2L1 normalized median ratio (H2L2 part) [9]: 56% | H2L2:H2L1 normalized median scalar value ln(r1/f1) [9]: 0.23 | H1L1:H1L2 normalized median ratio (H1L2 part) [11]: 31%

B9: Design 2979 bispecific antibody, System B (CAT-2200 H1/L1 & SGN-CD19a H2/L2) (bispecific antibody)
chain 1: not shown
chain 2: B2 chain 2 with D137V, S179E, T181E
chain 3: not shown
chain 4: EIVLTQSPATLSLSPGERATLSCSASSSVSYMHWYQQKPGQAPRLLIYDTSKLASGIPARFSGSGSGTDFTLTISSLEPEDFAVYYCFQGSVYPFTFGQGTKLEIKRTVAAPSVFIFPPSDEQLKSGTARVGCLLNNFYPREAKVQWKVDNALQSGNSQESVTEQDSKDSTYSLRSTLTLSKADYEKHKVYACEVTHQGLSSPVTKSFNRGEC
Kd [14]: 149 nM | Kd (Recombinant human IL-17A [5]): 0.39 nM | Difference in H1L1 log(KD) from wild type (Recombinant human IL-17A [6]): -0.14 | Difference in H2L2 log(KD) from wild type [15]: 0.18

B10: Design 3890 bispecific antibody, System C (CR8071 H1/L1 & SGN-CD19a H2/L2) (bispecific antibody)
chain 1: QVQLVQSGAEVKKPGASVRVSCRASGYIFTESGITWVRQAPGQGLEWMGWISGYSGDTKYAQKLQGRVTMTKDTSTTTAYMELRSLRYDDTAVYYCARDVQYSGSYLGAYYFDYWSPGTLVTVSSASTKGPSVFPLRPSSKSTSGGTAALGCLVKDYFPEPVTVSWNSGALTSGVHTFPAVLKSSGLYSLSSVVTVPSSSLGTQTYICNVNHKPSNTKVDKKVEPKSCDKTHTCPPCPAPELLGGPSVFLFPPKPKDTLMISRTPEVTCVVVDVSHEDPEVKFNWYVDGVEVHNAKTKPREEQYNSTYRVVSVLTVLHQDWLNGKEYKCKVSNKALPAPIEKTISKAKGQPREPQVYVYPPSRDELTKNQVSLTCLVKGFYPSDIAVEWESNGQPENNYKTTPPVLDSDGSFALVSKLTVDKSRWQQGNVFSCSVMHEALHNHYTQKSLSLSPG
chain 2: not shown
chain 3: not shown
chain 4: B9 chain 4 with S120K, Q123R, R130S, G132V, R175S, T177R
Difference in H2L2 log(KD) from wild type [16]: 0.22 log(KD) | Kd [17]: 40.9 nM | Kd [18]: 0.44 nM

B11: Design 2901 bispecific antibody, System C (CR8071 H1/L1 & SGN-CD19a H2/L2) (bispecific antibody)
chain 1: B10 chain 1 with R137A, K155T, V181D, K183Q, S191D
chain 2: not shown
chain 3: not shown
chain 4: B9 chain 4 with R130S, R175D
Difference in H2L2 log(KD) from wild type [16]: 0.21 log(KD) | Kd [17]: 41.9 nM | Kd [18]: 0.64 nM

B12: Design 3113 bispecific antibody, System B (CAT-2200 H1/L1 & SGN-CD19a H2/L2) (bispecific antibody)
chain 1: not shown
chain 2: B2 chain 2
chain 3: not shown
chain 4: B9 chain 4
Kd [14]: 216 nM | Kd (Recombinant human IL-17A [5]): 0.44 nM | Difference in H1L1 log(KD) from wild type (Recombinant human IL-17A [6]): -0.2 | Difference in H2L2 log(KD) from wild type [15]: 0.02

B13: Design 3931 bispecific antibody, System B (CAT-2200 H1/L1 & SGN-CD19a H2/L2) (bispecific antibody)
chain 1: not shown
chain 2: B2 chain 2 with D137V, T181K
chain 3: not shown
chain 4: B9 chain 4 with R130S, R175D
Kd (Recombinant human IL-17A [7]): 0.29 nM | Difference in H2L2 log(KD) from wild type [16]: 0.09 log(KD) | Difference in H1L1 log(KD) from wild type (Recombinant human IL-17A [8]): 0.11 log(KD) | Kd [17]: 54.9 nM

B14: Design 2994 bispecific antibody, System B (CAT-2200 H1/L1 & SGN-CD19a H2/L2) (bispecific antibody)
chain 1: not shown
chain 2: B2 chain 2 with E128Q, T135K, D137V, T181Y
chain 3: not shown
chain 4: B9 chain 4 with Q123E, R130S, G132D, R175S
Kd (Recombinant human IL-17A [7]): 0.28 nM | Difference in H2L2 log(KD) from wild type [16]: 0.16 log(KD) | Difference in H1L1 log(KD) from wild type (Recombinant human IL-17A [8]): 0.12 log(KD) | Kd [17]: 49.7 nM

B15: Design 3967 bispecific antibody, System B (CAT-2200 H1/L1 & SGN-CD19a H2/L2) (bispecific antibody)
chain 1: not shown
chain 2: B2 chain 2 with S126D, K133T, D137V, S179E, T181E
chain 3: not shown
chain 4: B9 chain 4 with S120K, Q123R, R130S, G132V, R175S, T177R
Kd (Recombinant human IL-17A [7]): 0.38 nM | Difference in H2L2 log(KD) from wild type [16]: 0.27 log(KD) | Difference in H1L1 log(KD) from wild type (Recombinant human IL-17A [8]): -0.13 log(KD) | Kd [17]: 36.1 nM
